How the values were obtained:
[1] = target: HBV purified from blood of chronic hepatitis B patients (hHBV virions carrying hHBsAg) (hepatitis B virus from CHB patients); experiment: BLI, Siglec-3.Fc immobilized on the sensor, hHBV in solution
[2] = target: HBV purified from blood of chronic hepatitis B patients (hHBV virions carrying hHBsAg) (hepatitis B virus from CHB patients); experiment: BLI, Siglec-3.Fc immobilized on the sensor, untreated hHBV in solution
[3] = target: HBV purified from blood of chronic hepatitis B patients (hHBV virions carrying hHBsAg) (hepatitis B virus from CHB patients); experiment: calculated from three BLI results by the multivalency equation of paragraph 89
[4] = target: hHBV treated with sialidase S (hepatitis B virus from CHB patients); experiment: BLI, Siglec-3.Fc immobilized on the sensor, sialidase S-treated hHBV in solution

“recombinant human Siglec-3 ECD.Fc fusion protein (from UniProt P20138 18-259)” was tested, and the Kd [1] was 0.115 nM, the koff [1] was 0.000358 s⁻¹ and the kon [1] was 3.11e+06 M⁻¹ s⁻¹. It also gave a Kd [2] of 0.591 nM, a koff [2] of 0.000697 s⁻¹ and a kon [2] of 1.18e+06 M⁻¹ s⁻¹. The valence (N) [3] was 2, the Kd [4] was 0.384 nM and the koff [4] was 0.000273 s⁻¹. For the same substance, the kon [4] was 711000 M⁻¹ s⁻¹.

Reference: patent US20210292413A1
